Test results reported in publication PMC10600506.

Biological target: SARS-CoV-2 Omicron BA.1 Spike receptor-binding domain (SARS-CoV-2 Omicron BA.1)
Assay: BLI; RBD1 with hACE2, 'with the same assay condition' as Nb4 with RBD1

Sequence of angiotensin-converting enzyme 2, extracellular (Q9BYF1 20-615): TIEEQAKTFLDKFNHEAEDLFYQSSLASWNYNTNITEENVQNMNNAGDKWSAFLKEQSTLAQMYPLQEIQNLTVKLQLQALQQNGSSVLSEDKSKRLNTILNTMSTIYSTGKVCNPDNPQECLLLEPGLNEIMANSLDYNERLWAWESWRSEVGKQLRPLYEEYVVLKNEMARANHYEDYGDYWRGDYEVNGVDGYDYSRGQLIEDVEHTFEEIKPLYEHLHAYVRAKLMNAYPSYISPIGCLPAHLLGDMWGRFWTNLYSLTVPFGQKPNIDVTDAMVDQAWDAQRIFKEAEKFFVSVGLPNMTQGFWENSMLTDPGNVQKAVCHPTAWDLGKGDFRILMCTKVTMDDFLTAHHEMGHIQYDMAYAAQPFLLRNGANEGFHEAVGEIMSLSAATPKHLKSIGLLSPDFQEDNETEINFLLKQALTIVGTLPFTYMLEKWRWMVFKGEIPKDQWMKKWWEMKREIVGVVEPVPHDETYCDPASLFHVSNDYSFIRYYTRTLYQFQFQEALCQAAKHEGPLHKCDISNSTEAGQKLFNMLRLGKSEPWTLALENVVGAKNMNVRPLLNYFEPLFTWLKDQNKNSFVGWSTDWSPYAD

## angiotensin-converting enzyme 2, extracellular (from UniProt Q9BYF1 20-615) (receptor)
  Kd: 9 nM
